The first test concerns the target gametogenesis essential protein 1 (GEP1), truncation GEP1^192-905, Strep-tagged. The experiment in a line: pull-down (Strep-Tactin beads), GFP intensity of elution. Details: reference not given here. The following applies: co-expression of GEP1-192-905 and GCα-2301-3850; parent: est. 100; read off a plot.
For the substance “guanylate cyclase α C-terminal half, GCα^2301-3850, with N-terminal mEGFP E2794A”, the percent of parent was determined as 80%.
Consider “guanylate cyclase α C-terminal half, GCα^2301-3850, with N-terminal mEGFP D3642V”, for which the percent of parent stood at 100%.
On to “guanylate cyclase α C-terminal half, GCα^2301-3850, with N-terminal mEGFP S2910W”, for which the percent of parent was found to be 74%.
Turning to “guanylate cyclase α C-terminal half, GCα^2301-3850, with N-terminal mEGFP N3724W”, the percent of parent was 110%.
As for “guanylate cyclase α C-terminal half, GCα^2301-3850, with N-terminal mEGFP D3598A”, the percent of parent was 110%.

A further test has as its target gametogenesis essential protein 1 (GEP1), truncation GEP1^192-905, Strep-tagged (Plasmodium yoelii). As to the kind of experiment: pull-down; mutants of mEGFP-GCα^2301-3850 with Strep-tagged GEP1^192-905 on Strep-Tactin beads; GFP intensity of the eluates against WT; whether co-expressed or mixed is not stated.
Settings: not given
As for “GCα^2301-3850 (GCα-C) Q2755A, mEGFP-tagged (domain or fragment)”, the GFP intensity of the pull-down eluate, percent of WT was 49.2 % of WT.

(Values after article PMC9916804.)
